From paper PMC13379383

Target: thrombin (human, UniProt P00734;P00734 328-363;364-622)
Assay: AuNP aggregation (plasmonic scattering); 16 nM thrombin, 4.59 uM TBA, 0.1 M NaCl, pH 7.4; LoD 0.5 nM (not a Kd)

AGTCCGTGGTAGGGCAGGTTGGGGTGACT (ssDNA, 5'-amine C6 linker) [TBA (thrombin-binding aptamer)]: binds.
